According to US20100137190A1, “LIQUID COMPOSITION FOR EXTERNAL APPLICATION AND PREPARATION FOR EXTERNAL APPLICATION FOR TREATMENT OF SKIN ULCER” (priority 2006, published 2010):
“Also recorded” adds a separate entry of the source.

System: ulcer model of delayed skin wound healing (60 sec ethanol exposure model)
Test: Healing effect of GM-CSF external agent on intractable skin ulcer
Type: in vivo
Experimental: By using a C57BL/6 mouse, an ulcer model of delayed skin wound healing as an intractable skin ulcer model was produced. Specifically, full thickness dorsal skin tissue with a size of 2×1.5 cm of a C57BL/6 mouse was excised, whereby the fascia was exposed with almost no bleeding. Then, the wound area was completely covered with cotton which had been sufficiently soaked in 70% ethanol, whereby ethanol exposure for 30 sec, 60 sec, 300 sec and 600 sec was carried out. After that, the wound area was air-dried, and the area of the wound area was measured (day 0). 7 days after completion of the experiment, the area of the wound area was measured, which was compared with the area of the wound area on day 0, and a change in the area of the wound area was examined. As a result, the shrinkage of the wound area was reduced as the time of ethanol exposure was increased, and the shrinkage hardly occurred by the 300 sec exposure. Incidentally, the mouse subjected to 600 sec ethanol exposure died at 3 days after the experiment due to deterioration of systemic symptoms. In the case where the time of ethanol exposure was short such as 30 sec exposure or 60 sec exposure, the healing was delayed because the tissue around the wound area directly received degenerative damage due to ethanol, however, granulation tissue was formed in the wound area in one week after the ethanol exposure, and the wound area was covered with epidermal tissue in about 3 weeks and the healing was completed. The 60 sec exposure was to be a factor of delaying the shrinkage of the wound area, but there was no systemic symptom and its effect was sufficient, therefore, this mouse was adopted as an ulcer model of delayed skin wound healing.
As GM-CSF, a mouse-derived recombinant (R&D System) was used. A solution obtained by dissolving this GM-CSF in an atelocollagen solution at a concentration of 20 μg/100 μL was applied to an affected area of the above-mentioned ulcer model of delayed skin wound healing (60 sec ethanol exposure model) and coagulated, and evaluation was performed in the healing process for 7 days. Further, a group in which only an atelocollagen solution (a 3 mg/mL hydrochloric acid solution) was applied to the affected area and coagulated was used as a control. […] When the shrinkage of the wound area after 7 days was examined, the relative area of the wound area in the GM-CSF administration group was larger by about 15% than that of the control group, and the shrinking action of natural healing of a wound area was inhibited, and the wound area was exacerbated.

B1: GM-CSF: granulocyte macrophage colony stimulating factor, mouse-derived recombinant (R&D System), dissolved in atelocollagen solution (protein, UniProt P01587 18-141, looked up)
Granulocyte-macrophage …: APTRSPITVTRPWKHVEAIKEALNLLDDMPVTLNEEVEVVSNEFSFKKLTCVQTRLKIFEQGLRGNFTKLKGALNMTASYYQTYCPPTPETDCETQVTTYADFIDSLKTFLTDIPFECKKPGQK
B1 was tested, and the “histology / symptoms of the wound area (edema, swelling)” value (20 μg/100 μL in atelocollagen solution, 7-day period) was “edema was noted”, the “thickness of granulation tissue compared with control group” value (20 μg/100 μL in atelocollagen solution, 7 days) was “slightly thicker” and the “relative area of the wound area, larger than that of the control group” value (20 μg/100 μL in atelocollagen solution, after 7 days, control atelocollagen only) was “about 15%”. The “wound healing effect on intractable skin ulcer (overall finding)” value (external application) was “does not have an effect on intractable skin ulcers; also recorded: does not have a wound healing accelerating effect”.
